Here are results for one molecule from patent publication US20150299258A1 (UNIVERSITY OF TOKYO, published 2015).

Positions of bridges follow the written chain, without caps; N, C: chain ends.

In test [1] the target is VEGFR2 expressed by HUVEC (human, UniProt P35968 20-1356). Description: cell-based or functional assay.
Test [2] has as its target T1, fusion protein of human VEGFR2 and Fc (human, UniProt P35968 20-764, limits assumed).
T1 construct: not shown: Fc
Briefly: BLI (ForteBio), VEGFR2-Fc on anti-human IgG capture biosensors, peptide in solution, 30 C. The procedure:
A dissociation constant of binding between the cyclic peptide L1 or BL1 thus synthesized and human VEGFR2 or mouse VEGFR2 was determined by BLI method (ForteBio). A fusion protein of VEGFR2 and Fc was immobilized onto Anti-human IgG Capture Biosensors and the cyclic peptide L1 or BL1 varied in concentration was analyzed. The temperature was set at 30° C.
On the technique in general: In BLI a coated tip is dipped into the sample, and binding shifts an interference pattern.

The term Kd denotes the free concentration of one partner at which half of the binding sites on the other are occupied at equilibrium, for simple one-to-one binding. Usually koff stands for the first-order rate constant of dissociation. By kon is commonly meant a measure of how fast the partners come together. Read a high kon as fast association.

T1 sequence (P35968 20-764 limits assumed): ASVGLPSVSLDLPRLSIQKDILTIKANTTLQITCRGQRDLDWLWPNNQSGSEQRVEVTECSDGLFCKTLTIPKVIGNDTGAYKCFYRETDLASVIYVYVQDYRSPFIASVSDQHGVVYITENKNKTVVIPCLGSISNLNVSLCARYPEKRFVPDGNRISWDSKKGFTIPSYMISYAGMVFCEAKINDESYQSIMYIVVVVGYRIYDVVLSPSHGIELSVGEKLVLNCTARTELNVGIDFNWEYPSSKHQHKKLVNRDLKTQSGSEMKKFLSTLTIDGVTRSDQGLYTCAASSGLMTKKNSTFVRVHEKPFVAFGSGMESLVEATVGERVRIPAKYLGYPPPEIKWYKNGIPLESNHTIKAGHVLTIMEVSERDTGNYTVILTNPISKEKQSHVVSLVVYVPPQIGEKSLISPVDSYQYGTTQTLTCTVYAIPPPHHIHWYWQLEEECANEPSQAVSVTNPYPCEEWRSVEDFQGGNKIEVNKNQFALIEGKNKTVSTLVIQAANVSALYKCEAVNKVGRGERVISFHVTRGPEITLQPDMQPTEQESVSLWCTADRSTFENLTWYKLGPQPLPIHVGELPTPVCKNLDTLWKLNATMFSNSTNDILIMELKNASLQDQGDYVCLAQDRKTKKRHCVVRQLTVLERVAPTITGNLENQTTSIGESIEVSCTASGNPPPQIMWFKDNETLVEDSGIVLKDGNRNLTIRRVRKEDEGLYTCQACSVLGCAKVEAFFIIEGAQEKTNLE
Sequence of VEGFR2 expressed by HUVEC (P35968 20-1356): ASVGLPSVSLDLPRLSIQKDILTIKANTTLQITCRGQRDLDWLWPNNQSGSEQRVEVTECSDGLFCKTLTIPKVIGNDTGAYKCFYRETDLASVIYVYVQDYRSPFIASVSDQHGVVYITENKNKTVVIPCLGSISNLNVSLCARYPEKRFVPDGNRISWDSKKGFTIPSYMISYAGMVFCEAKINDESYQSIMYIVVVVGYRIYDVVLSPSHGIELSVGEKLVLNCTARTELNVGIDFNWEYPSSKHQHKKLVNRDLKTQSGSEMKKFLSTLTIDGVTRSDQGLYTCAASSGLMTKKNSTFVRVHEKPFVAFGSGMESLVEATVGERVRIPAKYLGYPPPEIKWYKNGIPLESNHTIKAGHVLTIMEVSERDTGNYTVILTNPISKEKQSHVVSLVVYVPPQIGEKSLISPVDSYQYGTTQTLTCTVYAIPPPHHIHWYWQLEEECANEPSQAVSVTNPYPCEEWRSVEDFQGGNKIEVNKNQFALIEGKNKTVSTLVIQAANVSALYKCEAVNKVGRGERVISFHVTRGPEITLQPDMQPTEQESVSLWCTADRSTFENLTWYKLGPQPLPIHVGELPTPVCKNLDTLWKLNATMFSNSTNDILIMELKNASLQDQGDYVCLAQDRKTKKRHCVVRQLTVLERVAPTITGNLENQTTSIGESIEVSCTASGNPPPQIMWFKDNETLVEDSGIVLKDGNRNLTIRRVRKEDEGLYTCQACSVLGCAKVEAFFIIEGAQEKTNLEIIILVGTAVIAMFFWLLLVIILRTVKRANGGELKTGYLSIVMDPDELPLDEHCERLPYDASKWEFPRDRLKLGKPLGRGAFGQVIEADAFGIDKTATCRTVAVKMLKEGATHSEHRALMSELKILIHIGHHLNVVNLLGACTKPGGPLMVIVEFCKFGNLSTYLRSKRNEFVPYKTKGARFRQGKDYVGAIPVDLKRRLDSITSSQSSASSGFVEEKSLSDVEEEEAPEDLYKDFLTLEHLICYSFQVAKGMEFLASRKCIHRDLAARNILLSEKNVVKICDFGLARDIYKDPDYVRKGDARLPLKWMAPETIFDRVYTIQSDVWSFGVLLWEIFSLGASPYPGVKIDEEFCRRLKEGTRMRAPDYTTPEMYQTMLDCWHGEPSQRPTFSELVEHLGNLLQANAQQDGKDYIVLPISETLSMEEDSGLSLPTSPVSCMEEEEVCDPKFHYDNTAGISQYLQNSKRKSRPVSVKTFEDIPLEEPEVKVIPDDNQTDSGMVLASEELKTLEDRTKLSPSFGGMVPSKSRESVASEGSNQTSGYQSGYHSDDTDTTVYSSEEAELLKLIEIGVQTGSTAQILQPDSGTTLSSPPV

B1: cyclic peptide L1, synthesized: ClAc-Phe-Val-Val-Val-Ser-Thr-Asp-Pro-Trp-Val-Asn-Gly-Leu-Tyr-Ile-Asp-Cys-Gly (peptide)
peptide: {CH2CO}-FVVVSTDPWVNGLYIDCG-NH2
modifications: thioether N-17
SMILES: CC[C@H](C)[C@@H]1NC(=O)[C@H](Cc2ccc(O)cc2)NC(=O)[C@H](CC(C)C)NC(=O)CNC(=O)[C@H](CC(N)=O)NC(=O)[C@H](C(C)C)NC(=O)[C@H](Cc2c[nH]c3ccccc23)NC(=O)[C@@H]2CCCN2C(=O)[C@H](CC(=O)O)NC(=O)[C@H]([C@@H](C)O)NC(=O)[C@H](CO)NC(=O)[C@H](C(C)C)NC(=O)[C@H](C(C)C)NC(=O)[C@H](C(C)C)NC(=O)[C@H](Cc2ccccc2)NC(=O)CSC[C@@H](C(=O)NCC(N)=O)NC(=O)[C@H](CC(=O)O)NC1=O
notes: Made by Fmoc solid-phase synthesis, cyclised and HPLC purified; this form was used in BLI and in the cell assays
For B1, in test [1], the “growth inhibition of HUVEC with 10 ng/mL VEGF (BrdU method), IC50” value was determined as 60 nM. Besides, in test [2], the Kd came to 94 nM, the koff amounted to 0.002 s⁻¹ and the kon was determined as 20000 M⁻¹ s⁻¹.
